In paper PMC10787225 (Computational and Structural Biotechnology Journal, 2023):

Key:
[1] = Atomic force microscopy (AFM) of samples at the end of ThT aggregation assays; format: physicochemical; conditions: for AFM aggregate morphology: end of ThT aggregation assay in 20 mM NaPi, pH 7.4, 50 mM NaCl, dried on mica; for AFM aggregate morphology of individual peptide: end of ThT assay at moderate peptide concentrations without ThT fluorescence, 50 mM Tris, pH 8.5
Description: (§1) For AFM imaging, 2 μl samples were taken out of the wells at the end of the ThT aggregation assays, put onto a freshly cleaved muscovite mica surface and dried during incubation for 10 min under the clean bench. Subsequently, the samples were washed with 100 μl ddH2O in three steps and dried with a stream of N2 gas. Imaging was performed in intermittent contact mode (AC mode) in a JPK NanoWizard 3 atomic force microscope using a silicon cantilever with silicon tip (OMCL-AC160TS-R3, Olympus) with a typical tip radius of 9 ± 2 nm, a force constant of 26 N/m and resonance frequency around 300 kHz. The images were processed using JPK DP Data Processing Software (version spm-5.0.84).

[2] = Solubility by visible precipitation upon dissolution of lyophilized peptide; conditions: aqueous buffer, µM concentrations, neutral pH; visual
Description: (§2) Fig. 4 Test set of eight protein segments. (A) List of the investigated peptides. Underlined stretches in the peptide sequences correspond to the predicted amyloidogenic β-hairpins. A peptide was considered ‘soluble’ when no visible precipitation occurred upon dissolution of the lyophilized peptide in 20 mM NaPi, pH 7.4, 50 mM NaCl, to a final concentration of 20 µM. […] (B) Conformations of investigated segments (red) in the context of their source proteins.

β-wrapin AS10 [3] = experiment: 1H-15N HSQC NMR detection of β-hairpin formation upon AS10 binding; conditions: 25 °C; for NMR signature of β-hairpin folding coupled to AS10 binding (1H–15N HSQC of 15N-AS10): 100 µM 15N-AS10 mixed with 20% molar excess of peptide, pH 7.4; for NMR β-hairpin: 100 µM 15N-AS10 with 20% molar excess of peptide, 20 mM sodium phosphate, pH 7.4, 50 mM NaCl
Description: The NMR spectra were acquired at 25 °C using VNMRS instruments (Varian) at proton frequencies of 800 and 900 MHz, each equipped with a cryogenically cooled Z-axis pulse-field-gradient (PFG) triple resonance probe. The sample buffer was 20 mM sodium phosphate, pH 7.4, 50 mM NaCl, supplemented with 10% D2O. For detection of complex formation, samples contained 100 μM ^15N-labeled AS10, expressed and purified as described, [43], and a 20% excess of the unlabeled peptide. For determination of β-sheet registries, NMR samples contained ^13C^15N-labeled fusion constructs in concentrations between 360–700 μM. Backbone assignments were obtained using BEST-TROSY experiments. Nuclear Overhauser effect (NOE) based distance restraints for β-sheet registry determination were derived from 3D (^1H–^1H-^15N)-NOESY-HSQC (120 ms mixing time) and (^1H–^13Cali-^1H)-HSQC-NOESY (100 ms mixing time) experiments. NMR data were processed using NMRPipe and analyzed with CcpNMR [50].
To test for β-hairpin formation in the peptides upon binding to AS10 we performed NMR spectroscopy. ^1H–^15N HSQC NMR spectroscopy using ^15N-labeled AS10 (^15N-AS10) and unlabeled binding partner leads to characteristic changes upon β-hairpin folding coupled to binding. These include a great increase in resonance dispersion, appearance of four amide proton resonances in the glycine region (^15N chemical shift <110 ppm) stemming from Gly-13 and Gly-14 in the two AS10-subunits, as well as appearance of amide proton resonances with shift values typical for β-sheet conformation (high ^1H and high ^15N chemical shifts).

[4] = Thioflavin T (ThT) aggregation assay; format: physicochemical; conditions: for Shape of ThT time course / kind of aggregates: 20–550 µM peptide; for Shape of ThT time course / kind of aggregates / ThT / ThT fluorescence time course: 20 mM NaPi, pH 7.4, 50 mM NaCl, 37 °C; for ThT: peptide 20–550 µM, up to 85 h, 300 rpm, glass bead; for ThT / ThT fluorescence time course: 25 µM ThT, triplicate; for ThT fluorescence of peptide alone: 50 mM Tris, pH 8.5, 37 °C, 40 µM ThT
Description: All ThT aggregation assays were done in Greiner 96-well half-area, clear bottom, low-binding plates. The measurements themselves were done in a BMG CLARIOstar plate reader at 37 °C and 300 rpm shaking in orbital mode with one glass bead (0.75–1 mm, Roth) per well. Wells with samples were always surrounded by wells filled with liquid, either other samples or 150 μl water, to counter potential artefacts due to evaporation. […] Final concentrations of 25 µM ThT and 0.04% sodium azide (NaN3) were added. The plate was sealed with sealing tape and put into the plate reader, heated to 37 °C, and ThT fluorescence was read in 1000 cycles of 300 s each using bottom optics with excitation at 448 nm (10 nm bandwidth) and emission at 482 nm (10 nm bandwidth). […] Samples contained 40 µM ThT and 0.04% NaN3.
as §2

PAP(248−286) = experiment: ThT aggregation assay and AFM of PAP(248−286) in presence of added peptide; format: biochemical, human; conditions: 500 µM PAP(248−286), added peptide 25–100 µM, 50 mM Tris, pH 8.5, 37 °C, 40 µM ThT
Description: (§3) All ThT aggregation assays were done in Greiner 96-well half-area, clear bottom, low-binding plates. The measurements themselves were done in a BMG CLARIOstar plate reader at 37 °C and 300 rpm shaking in orbital mode with one glass bead (0.75–1 mm, Roth) per well. Wells with samples were always surrounded by wells filled with liquid, either other samples or 150 μl water, to counter potential artefacts due to evaporation. […] Final concentrations of 25 µM ThT and 0.04% sodium azide (NaN3) were added. The plate was sealed with sealing tape and put into the plate reader, heated to 37 °C, and ThT fluorescence was read in 1000 cycles of 300 s each using bottom optics with excitation at 448 nm (10 nm bandwidth) and emission at 482 nm (10 nm bandwidth). […] PAP(248−286) and SEM1(86−107) were kept at constant concentrations of 500 and 300 µM, respectively. […] Samples contained 40 µM ThT and 0.04% NaN3.
as §1

SEM1(86−107) = experiment: ThT aggregation assay and AFM of SEM1(86−107) in presence of added peptide; format: biochemical, human; conditions: 300 µM SEM1(86−107), added peptide 25–100 µM, 50 mM Tris, pH 8.5, 37 °C, 40 µM ThT
Description: as §3, §1

β-wrapin AS10 [5] = experiment: Isothermal titration calorimetry (ITC) of peptide binding to AS10; conditions: 30 °C, 30 µM AS10 in cell, peptide titrated from syringe, 20 mM sodium phosphate, pH 7.4, 50 mM NaCl, 1:1 binding model
Description: ITC was performed at 30 °C using a Microcal iTC200 calorimeter (GE Healthcare). AS10 was filled into the cell at a concentration of 30 µM in 20 mM sodium phosphate, pH 7.4, 50 mM NaCl. Peptides were titrated from the syringe in approximately 10-fold higher concentrations. Heats of post-saturation injections were averaged and subtracted from each injection to correct for heats of dilution and mixing. Dissociation constants were obtained from a nonlinear least-squares fit to a 1:1 binding model using MicroCal Origin.

β-wrapin AS10 [6] = experiment: ITC; 30 µM AS10 in the cell, peptides titrated from the syringe at approximately 10-fold higher concentrations; 30 °C; 20 mM sodium phosphate, pH 7.4, 50 mM NaCl; fit to a 1:1 binding model
[7] = peptide alone 25–100 µM (up to 100 µM)

## MIC26(153−178): synthetic peptide of predicted β-hairpin-forming amyloidogenic segment 153−178 of MIC26 (QQAIVFAQVSGERLYDWGLRGYIVIE; UniProt Q9BUR5 153-178, looked up, fragment)
[1]
  AFM aggregate morphology: fibrillar aggregates confirming amyloid formation were detected
[2]
  Precipitate formation upon dissolution: immediate precipitation
β-wrapin AS10 [3]
  NMR signature of β-hairpin folding coupled to AS10 binding (1H–15N HSQC of 15N-AS10): no change
[4]
  Shape of ThT time course / kind of aggregates: ThT fluorescence was high from the beginning
  ThT: +

## CYP2W1(176−204): synthetic peptide of predicted β-hairpin-forming amyloidogenic segment 176−204 of CYP2W1 (SNITFALLFGRRFDYRDPVFVSLLGLIDE)
[1]
  AFM aggregate morphology: fibrillar aggregates confirming amyloid formation were detected
[2]
  Precipitate formation upon dissolution: immediate precipitation
β-wrapin AS10 [3]
  NMR signature of β-hairpin folding coupled to AS10 binding (1H–15N HSQC of 15N-AS10): signature was also observed
  NMR β-hairpin: +
[4]
  Shape of ThT time course / kind of aggregates: ThT fluorescence was high from the beginning
  ThT: +

## PAP Str1(186−194): β-strand peptide, constituent segment 186−194 of PAP(185−208) (DFIATLGKL)
PAP(248−286)
  Effect of added peptide on ThT time trace of PAP(248−286): ThT time traces exhibited additional phases of rapid growth
[4]; [7]
  ThT fluorescence of peptide alone: concentration-dependent increase in ThT fluorescence within minutes to a few hours
SEM1(86−107)
  Effect of added peptide on ThT time trace of SEM1(86−107): ThT time traces exhibited additional phases of rapid growth

## SEM1(86−107): semen amyloid peptide, fragment of semenogelin-1 (DLNALHKTTKSQRHLGGSQQLL) [reference compound]
[1]
  AFM aggregate morphology of individual peptide: aggregates of amorphous shape
[4]; peptide alone 300 µM
  ThT fluorescence of peptide alone: did not exhibit ThT fluorescence

## NBPF1(928−946): synthetic peptide of predicted β-hairpin-forming amyloidogenic segment 928−946 of NBPF1 (RSAFYILEQQRVGWALDMD)
β-wrapin AS10 [5]
  Affinity to AS10 (dissociation constant KD): heat signals were not observed
β-wrapin AS10 [3]
  NMR signature of β-hairpin folding coupled to AS10 binding (1H–15N HSQC of 15N-AS10): no change
[4]; 20–25 µM peptide
  ThT fluorescence time course: no increase in fluorescence intensity was detected
[4]; peptide increased to 500–550 µM
  ThT fluorescence time course: remained ThT negative

## PAP(248−286): PAP fragment which forms functional amyloid in semen (GIHKQKEKSRLQGGVLVNEILNHMKRATQIPSYKKLIMY) [reference compound]
[1]
  AFM aggregate morphology of individual peptide: aggregates of amorphous shape
[4]; peptide alone 500 µM
  ThT fluorescence of peptide alone: did not exhibit ThT fluorescence

## NDUFS7(104−129) (from UniProt O75251 104-129) (peptide)
β-wrapin AS10 [6]
  Kd: 4.7 µM

## TTC5(335−361): synthetic peptide of predicted β-hairpin-forming amyloidogenic segment 335−361 of TTC5 (AVILGKVVFSLTTEEKVPFTFGLVDSD)
β-wrapin AS10 [5]; read-out: Affinity to AS10 (dissociation constant KD)
  Kd: 4.7 ± 0.9 µM
β-wrapin AS10 [3]
  NMR signature of β-hairpin folding coupled to AS10 binding (1H–15N HSQC of 15N-AS10): signature was observed
  NMR β-hairpin: +
[4]
  ThT: +

## PAP Str2(200−208): β-strand peptide, constituent segment 200−208 of PAP(185−208)
PAP(248−286)
  Effect of added peptide on ThT time trace of PAP(248−286): induced increases in ThT fluorescence, albeit with somewhat longer lag-times
[4]; [7]
  ThT fluorescence of peptide alone: do not exhibit ThT fluorescene
SEM1(86−107)
  Effect of added peptide on ThT time trace of SEM1(86−107): induced increases in ThT fluorescence, albeit with somewhat longer lag-times

## 3-PGDH(298−319): synthetic peptide of predicted β-hairpin-forming amyloidogenic segment 298−319 of 3-PGDH (EIAVQFVDMVKGKSLTGVVNAQ; UniProt O43175 298-319, looked up, fragment)
[2]
  Precipitate formation upon dissolution: immediate precipitate formation upon dissolution
β-wrapin AS10 [3]
  NMR signature of β-hairpin folding coupled to AS10 binding (1H–15N HSQC of 15N-AS10): no change
[4]
  Shape of ThT time course / kind of aggregates: can form both ThT-positive as well as ThT-negative aggregates
  ThT: +

B1: TTC5(335−361) (peptide)
peptide: AVILGKVVFSLTTEEKVPFTFGLVDSD
β-wrapin AS10 [6]
  Kd: 4.7 µM

B2: PAP(185−208) (peptide)
peptide: KDFIATLGKLSGLHGQDLFGIWSK
β-wrapin AS10 [6]
  Kd: 39 µM
